Assay: yeast display, Sf9 membrane polyspecificity reagent, FACS + sequencing; frameworks hold sequencing errors
Summary of the method: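 After 36–48 hours of galactose induction, yeast (Saccharomyces cerevisiae BJ5465) displaying a synthetic nanobody library were stained at 4 °C for 1 hour with 10% biotinylated, detergent-solubilized Sf9 membrane reagent. Streptavidin microbeads enriched the stained cells before FACS sorting into low and high (top ~1%) gates on anti-HA and streptavidin fluorescence. Each clone's polyreactivity label reflects its gate of origin.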

| Sequence | polyreactivity (PSR sort gate) |
| --- | --- |
| QVQLVESGGGLVQAGGSLRLSCAASGRTFYRNAMGWYRQAPGKERELVAAISWRGGSTFYADSVKGRFTISRDNAKNTVYLQMNSLKPEDTAVYYCNAGSNSFSRVEYWGQGTQVTVSS | low polyreactivity |
| QVQLVESGGGLVQAGGSLRLSCAASGLIFAGYAMGWYRQAPGKERELVAAITWRGGRTYADSVKGRFTISRDNAKNTVYLQMNSLKPEDTAVFYCAVRRWGTSFVEDDYWGQGTQVTVSS | low polyreactivity |
| QVQLVESGGGIVQAGGSLRLSCAASGSTFYLYAMGWYRQAPGKERELVAAISTVGSTNYADSVNGRFTISRDNAKNTVYLQMNSLKPEDTAVYYCNAEYYGVVEYDYWGHGTQVTVSS | low polyreactivity |
| QVQLVESGGGLVQAGGSLRLSCAASGSIFRWYDMGWYRQAPGKERELVAVISKRGGSTYYADSVKGRFTISRDNAKNTVYLQMNSLKPEDTAVYYCAKRYERWQLARLDYWGQGTQVTVSS | high polyreactivity |
| QVQLVESAGGLVQAGRSLRLSCAASGRNFLGNDMGWYRQAPGKERELVAAISYGDGSTYYADSVKGRFTISRDNAKNTVYLQMNSLKPEDTAVYYCAAERYTIPPIYDYWGQGTQVTVSS | low polyreactivity |
| QFQLEYSGGGLVQAGGSLRLSFASSGSTLARNAMGWYRQATVKERELVPSINGRTTRTYYADSVKGRFTISRDNAKNTVYLQMNSLKPEDTAVYYCAADPPGYVYGKRYYWGQGTQVTVSS | high polyreactivity |
| QVQLVESGGGLVQAGGSLRLSCAASGSTFVENAMGWYRQAPGKEREVVAAISSSGDSTFYADSVKGRFTISRDNAKNTVYLQMKSLKPEDTAVYYCAADRRINYDGLDMDYWGQGTQVTVSS | low polyreactivity |
| QVQLVESGGGLVQAGGSLRLSCAASGFIFPYAMGWYRQAPGKEREMVAAISSTDGSTYYADSVKGRFTISRDNAKNTVYLQMNSLKPEDTAVYSCNAPFSFARYPSSWHYWDYYYWGQGTQVTVSS | low polyreactivity |
| QVQLVESGGGLVQAGGSLRLSCAASGSTLDEYVMGWYRQAPGKEREFVAAISRSGSSTYYADSVKGRFTISRDNAKNTVYLQMNSLKPEDTAVYYCAARLYSSVVRYRYGYWGQGTQVTVSS | high polyreactivity |
| QVQLVESGGGLVQAGGSLRLSCAASGSTFQGYDMGWYRQAPGKERELVAAINYSGGSTYYADSVKGRFTISRDNAKNTVYLQLNSLKPEDTAVFYCNADGYSQFWYEYYYCGQGTQVTVSS | high polyreactivity |
| QVQLVESGGALVQAGGSLRLSCAASGFIFSYYVMGWYRQAPGKERELVAAITTSGDSTYYADSVKGRFTISRDNAKNTVYLQMNSLKPEDTAVYYCAADIYYETIWHYGYWGQGTQVTVSS | high polyreactivity |
| QVQLVESGGGLVQAGGILRVSCAASGYTFLGYAMGWYRQPPGKEMELVAVISRTGGRTYYADSVKGRFTISRDNAKNTVYLQMNSLKPEDTAVYYCATEDYRGPEYDYWGQGTQVNVSS | high polyreactivity |
| QVQLVESGGGLVQAGGSLRLTCAASGITFKFYAMGWYRQAPGKESELVAAITSGGGSTYYADSVKGRFTISRDNAKNTVYLQMNILKPEDTAVYYCNTYSIAYYSPCYDYWGQGTQVNVSS | high polyreactivity |
| QVQLVESGGGLVQAGGSLRLSCAASGFTFYAYAMGWYGQAPGKERELVAAITGRGGSTYYADSVKGRFTISRDNAKNTVYLQMNSLKPEDTAVYYCNKVKKSDKFNNFSNDYWGQGTQVTVSS | high polyreactivity |
| QVQLVESGGGLVQAGGSLRLSCAASGRTFEQNAMGWYRQAPGKERELVASITSVGSTDYADSVKGRFTISRDNAKNTVYLQMNSLKPEDTAVYYCAKTLCSQNYDFDYWGQGTQVTVSS | low polyreactivity |
| QVQLVESGGGLVQAGGSLRLSCAASGRIFRTYAMGWYRQAPGKERELVAAINSGGTTYYADSVKGRFTISRDNAKNTVYLQMNSLKPEDTAVYYCNAEYYYAFLRLWYDYWGQGTQVTVSS | high polyreactivity |
| QVQLVESGGGLVQAGGSLRLSCAASGFTLADNTMGWYRQAPGKEMELVAAITSGASTYYADSVKGRFTISRDNAKNTVYLQMNSLKPEDTAVYYCAALYYWLSGYDYWGQGTQVTVSS | low polyreactivity |
| QVQLVESGGGLVQAGGSLRLSCAASGSTFGPYAMGWYRQAPGKERELVATITRNGGSTYYADSVKGRFTISRDNAKNTVYLQMNSLKPEDTAVYYCNAEGRWSSFTQRMDYWGQGTQVTVSW | low polyreactivity |
| QVQLVESAGRLVQEGGSLRLRSAASGSIFKYNTMGWYRQAAGKERELVAGISYGGRTYYADSVKGRFTISRDNAKNTVYLHMNSLKPEYTAVYYCAARWSYFKTTHRNNYWGQGTQVTVSS | high polyreactivity |
| QVQLVESGGGLVQAGGSLRLSCAASGRIFVKYAMGWYRQAPGKEREMVAAISASGGGTYYADSVKGRFTISRDNAKNTVYLQMNSLNPVDTAVYYFNADFRYPGQVPSYVTYDYWGQGTQVNVSS | low polyreactivity |
| QVQLVESGGGLVQAGGSLRLSCAASGSIFLRYGMGWYRQAPGKERELVAAISRGGGSTYYADSVKGRFTISRDNAKNTVYLQMNSLKPEDTAVYYCNKASYRYSSDYDYWGQGTQVTVSS | high polyreactivity |
| QVQLVESGGGLVQAGGSLRLSCAASGRTFDGNAMGWYRQAPGKERELVAAISKRGGTTYYADSVKGRFTISRDNAKNTVYLQMNSLKPEDTAVYYCAAPYNTYSYSEGEYWGQGTQVTVSS | low polyreactivity |

| Sequence | polyreactivity (PSR sort gate) |
| --- | --- |
| QVQLVESGGGLVQAGGSLRLSCAASGSTFDTYAMGWYRQAPGKERELVAAISRSGTSTYYADSVKGRFTISRDNAKNTVYLQMKSLKPEDTAVYYCAAYGPRVNGEIGREYYYWGQGTQVTVSS | low polyreactivity |
| QVQLVESGGGIVQAGGSLRLSCAASGLIFSRYTMGWYRQAPAKEMELVAAISGRGTSTYYAYSVKGRFTISRDNAKNTVYLLMNSLKPEDTAVYYCATSKSYSAFDYWGQGTQVTVSS | high polyreactivity |
| QVQLVESGGGLVQAGGSLRLSCAASGRIFYYYAMGWYRQAPGKERELVAAITWSGVNTYYADSVKGRFTISRDNAKNTVYLQMNSLKPEDTAVYYCATDTGYPYSYDLYDSYYWGQGTQVTVSS | low polyreactivity |
| QVHLVESGGGLVQAGGSLRLSCAASGSIFSGYAMGWYRQAPGKEREFVAAISSSGGRTYYADSVKGRFTISRDNAKNTVYLQINSLKPEDTAVYYCNARRWPFNYDYWGQGTQVTVSS | high polyreactivity |
| QVQLVESGGCLVQAGGRLRLSCAASGFTFNAYSMGWYRQAPGKERELVAAINVSGGITYYADSVKGRFTISRDNAKNTVYLQMNSLKPEDTAVYYCARDIRQYILYGRGDYWGQGTQVTVSS | low polyreactivity |
| QVQLVESGGGLVQAGGSLRLSCAASGSTFFRNAMGWYRQAPGKERELVAAISGSGNTYYADSVKGRFTISRDNAKNTVYLQMNSLKPEDTAVYYCADDVVYWYFHYDYWGQGTQVTVSS | low polyreactivity |
| QVQLVESGGGLVQAGRSLRLSCAASGRTFPYNAMGWYRQAPGKESELVAAITSGGTTNYADSVKGRFTISRDNAKSTVYLQFNRLKPEDTAVYYCAADSDASSQFRRDYWGQGSQVTVSS | low polyreactivity |
| QVQLVESGGGLVQAGGRLRISCAASVRIFGVNAMGWYRQAPGKERELVAVISSGGSTYYADSVKGRFTISRDNAKNTVYLQMNSLNPEDTAVYSCYAVVGRWFPYNLSDYWGQGTQVTVSS | low polyreactivity |
| QVQLVESGGGLVQAGGSLSLSCAASAHTFVTNAMGWYRQAPGKERELVAAISRSGGHTYYADSVKGRFTISRDNAKNTVYLQMNSLKPEDTAVYYCAKTRGPRTLYDYWGQGTQVTVSS | high polyreactivity |
| QVQLVESGGGLVQAGGSLRLSCAATGFTFYKNAMGWYRQAAGKDRELVAAITRGGTTNYADSVMGRFTISRDNAKNTVYLQMNSLKEEDTAVYYCAKQGRYLTRYGYWGQGTQVTVSS | high polyreactivity |
| QVQLVESGGGLVQAGGSLRLSCAASGYIFKYNAMGWYRQAPGKERELVATIRGGGSTNYADSVKGRFTISRDNAKNTVYLQMNSLKPEDTAVYYCAAVQRYEYGYWGQGTQVTVSS | high polyreactivity |
| QVQLVESGGGLVQAGGSLRLSCAASGRTFYAYAMGWYRQAPGKERELVAAISWRGGRTYYADSVKGRFTISRDNAKNTVYLQMNSLKPEDTAVYYCAAEYSYGFDYWGQGTQVTVSS | high polyreactivity |
| QVQLVESGGGLVQAGGSLRLSCAASGRIFPKNAMGWYRQAPGKERELVASISSAGSTNYADSVKGRFTISRDNAKNTVYLQMNSLKPEDTAVYYCAAYHQSFGGVKGYYWGQGTQVTVSS | high polyreactivity |
| QVQLVESGGGLVQAGGSLRLSCAASGSIFYNYAMGWYRQAPGKERELVAAIKRSGGITFYADSVKGRFTISRDNAKNTVYLQMNSLKPEVTAVYYCAADRSFGHHFWYTGKRYDYWGQGTKVTVSS | low polyreactivity |
| QVQLVESGGGLVQAGGSLRLSCAASGSTFQNYAMGWYIQAPGKERELVAAIRGNGGITYYADSVKGRFTISRDNAKNTVYLQMNSLKPEDTAVYYFAVRSAWVYGIRRDYWGQGTQVTVSS | high polyreactivity |
| QVQLVESGGGLVQAGGSLRLSCAASGRTFDFYAMGWYRQAPGKERELVAAITFSTGSTTYADSVKGRFTISRDNAKNTVYLQMNSLKPEDTAVYYCGADGDGWWWSYVDRYDYWGQGTQVTVSS | low polyreactivity |
| QVQLVESGVGLVQAGGSLRLSCAASGITLYNYAMGWYRHAPGKERELVAAISLSGGRTYYADSVKGRFTISRDNAKNTVYLQMNSLKPEDTAVYYCAADWLNSDPYNYWGQGTQVTVSS | low polyreactivity |
| QVHLVESGGALVQAGGSLRLSCAASGFIFRKYAMGWYRQAPGKERELVAAISYRGASTYYADSVKGRFTISRDNAKNTVYLQMNSLKPEDTAVYYCADRYSNPWARVSGYDYWGQGTQVTVSS | high polyreactivity |
| QVQLVESGGALVQAGGSLRLSCAPSGRIFDFKAIGWYRQAPGKEREFVAAITWGGGSTYYADSVKGRFSISRDNAKNSVYLPMNSLKPEVTAVYYCAADGWYYYQSWFNFGMDYWGQGTQVTVSS | low polyreactivity |
| QVQLVESGGRLVQAGGSLRISCAASGSTFNGNVIVWSRQAPGKERELVAGISKSGGTTYYADSVKGRFTISRDNAKNTVYLQMNSLKPEDTAVYYCAARGRVRYYPQYDYWGQGTQVTVSS | high polyreactivity |
| QVQLEESGGGLVQAGGSLRLSCAASGIIFRCYCMGWYRQAPGKDRELVATITSGGRTNYADSVKGRFTISRDKAKNTVYLQMNSLNTEDTAVYYCAAARLFAMDYWGQGTQVTVSS | low polyreactivity |

Source: the nanobody polyreactivity screen of Harvey et al. (2022)
